The results in this text go back to PMC7398576.

Data set [1] has as its target p53 wild type (UniProt P04637 1-393). Description: pull-down.
In data set [2] the target is FLAG-p53 (UniProt P04637 1-393). Description: pull-down.
Sequence of FLAG-p53 (P04637 whole entry): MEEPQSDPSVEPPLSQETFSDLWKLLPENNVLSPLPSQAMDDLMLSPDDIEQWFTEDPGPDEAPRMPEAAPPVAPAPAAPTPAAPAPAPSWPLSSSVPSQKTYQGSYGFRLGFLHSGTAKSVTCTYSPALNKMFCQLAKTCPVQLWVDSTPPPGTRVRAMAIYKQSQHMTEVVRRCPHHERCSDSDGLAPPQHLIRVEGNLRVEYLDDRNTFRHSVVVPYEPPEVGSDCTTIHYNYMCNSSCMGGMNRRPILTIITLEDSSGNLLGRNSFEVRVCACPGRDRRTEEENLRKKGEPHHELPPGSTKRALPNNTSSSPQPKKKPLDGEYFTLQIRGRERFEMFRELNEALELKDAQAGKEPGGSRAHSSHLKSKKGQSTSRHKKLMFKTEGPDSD

Sequence of p53 wild type (P04637 whole entry): as above

B1: biotinylated p53-site oligonucleotide (dsDNA)
DNA 1: TCGAGAGGCATGTCTAGGCATGTCTC
DNA 2: GAGACATGCCTAGACATGCCTCTCGA
With B1, the binding result in data set [1] and in data set [2] was “binds” each time.
